Measurements reported in the domain aggregation screens of Martell et al. (2025).

assay: soluble fraction after stress (log2 fold change); higher = more stays soluble; pooled small domains, quantitative proteomics; details: stress: 75 degC
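Note: 20 min heating vs room temperature control held 20 min.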

| Sequence | soluble fraction (log2) |
| --- | --- |
| HMDEVPMPPEYQYLRVGSRVHHATFGWGKVTRLSQPWPQTRAEVFFENIGPKKLVLAHAHLTMD | -3.26 |
| HMDEYTAVDSRLDLELAMKRLKPEEAEVLRLVFDYGLPQRAIAERLGVSQMSVSRMQRRAIGKLKRWLSDN | -1.43 |
| HMDFKKKIIESWADIAETLRGLTVDSNISDWTTKQKNAYETLADKAELAGLSIADLNSILVELGYM | -0.119 |
| HMDFNDPTMEKSLVELPAMSNSTLRDLSENNIKKLEELAEMSVGELMDIASKISESDASALIMEARKPWF | -0.312 |
| HMDFRVGVWVELVQQRRSVRTQLTWVSPQHTLFLFTAKDGSTQSMTLRMRDKLLAEGNLRIVAPPSR | -2.37 |
| HMDFSENEPVTVRVLSILKNNTIRIAVKGAVLQAQTALSQDIREGAFLLMRVHITDNTVVLTPY | 0.112 |
| HMDFSNVNFSQVSDSELDLLMRRASAQGYTQFDLLKIARAQGLTQAEIEKLDKRFKSAETVAYVAENA | 0.0531 |
| HMDFTHFTLKQDGKFAGSSNLLHQAVIAAARLAAETGKPVTVMAHVRGGGTRKAVFNPDGTNDKIWN | -1.05 |
| HMDGAPVTVIKNGEVDVATTMRVGLSASELMFKLRAAGVDEVQIVHRAVLEQNGQLTIIKYGEE | -2.03 |
| HMDGASVQRITELTATLNRYRHEYYNLAKPSVSDAVYDRLFDELAALEQKTGIVLSNSPTQTV | -0.326 |
| HMDGFVFVMPIKETRMFSVNDERPLVGIVKYSNGEFEKEQLIGFRPNSEYEFIIEGQRLYRVPVNSITIK | -1.08 |
| HMDGIRLYPGLMIEHKNFGRGQVVSVNRERGTFTAFFGKNGTRTLTIQILKTDTVRPLASQKAGK | -0.594 |
| HMDGKPSLIISNGQINYKEMVKLRYSLEDLLFQLRQNSIKSIEEVEYAFLESNGKLSIFPYNFL | -2.53 |
| HMDGLGLGAVILAQRKRQGWTQEDLAARIGVSKGAVSKWETGQSYPDLPLVPRLAALFHITVDELLDYR | -2.35 |
| HMDGLIRLNKLLATLGVESRRHAEEMIIAGRITVDGVTATEKGQKVRRGAVIKVDGVEVGPPP | -0.581 |
| HMDGQPQLLIKNGQLLVSTALKNGMSANDLMFRLRTEGITDIRYVKRAVLEQNGQLTITQVGDD | -0.622 |
| HMDGVTEYTVKSGDSFSAIINKHYNVNYDEKLMQAVAAYNNIEDMNKLQLGQIIKLPPKEQLNL | -0.0462 |
| HMDGYVPAERIASEVGVSARTITREMHGLEMTLMPYGIALLRRTGAGFMLAGTAKALADLRKHMTEDADTQ | 0.134 |
| HMDHAHWEEHEVKLLLTLAIQEKEKFNWNQFGLTREGWRNIYPHFPQYSRKQINNKFDFLKQKYRAWKDS | -1.8 |
| HMDHAVINSEEVTIKDLSEKIGVSAAEIIKALFTEGIIKTINDKIEYEYAQYVAGMFGVELTLKL | 0.357 |
| HMDIANEQEQIFITAMRNDDFNPILELKMKGYQPSKNVLKSLQPDVSSTTFIAAAKIFQMEGVL | -1 |
| HMDIASNQIQGIKDSVGGDENYSKMVAWALESLPAEEVKAFNDLTETANAPAIKMAVQGLYSQYNNAM | 0.195 |
| HMDIDGVSENGRLILAALDKEALDFDTLAAETGIQESRLRTELTLLEIRKLIMKLPGQRYRLI | -2.39 |
| HMDIDNDIIENILVMGVTKAIAINLSNEFERHRIIANIEYAKEKSKNSEIKNISAFTVEAIRQDYANS | -1.34 |

| Sequence | soluble fraction (log2) |
| --- | --- |
| HMDIEITIPPEAKELDVSKILISGNIITDEQEFLDYLKQNNVAAFKDGNYKLNKNMTTEEIVNQIK | 0.691 |
| HMDIESREAWVDASGMGVRLDRWLTQLAPEFSRNHLQSLIERGAVRVDGQPALVASRKLRIGQQVAVSLIP | -1.31 |
| HMDIEVEVPNLVGMSLDEAKSIIQSMGLVVGLTIEDPSAKVSDNSVTKQKPTYQTGVKLRSGDMIDIWYAG | -0.659 |
| HMDIFSSFVAIKNANVRELPTAKSAQVATLSKGSEVTALGKVKGKNWYLVARDGKELGYVFGSLIAEAET | -1.56 |
| HMDIINLADNIARLRRRRQITQEELADYLGVTKAAVSKWENRQTMPDILLLPRLAGLFEVTIDELVGY | -2.19 |
| HMDIKDRSGVTIDESNEAQQESIIRESWAEQKISGNVDNYIAYLKANGMLLETAKIELAALQEKDASLRE | 0.774 |
| HMDILEVLIKKDLAMELLEQLTERQRTVVYLRYFYQLNQKEIADYLGISQQRVSEILSRAKAVLTAYTKK | -3 |
| HMDILPEGNYKVNYDVIDEVGNIVANKNDIVVTEKSIKPLNTILGIDLYEVIHSQTGKYFTINGDNLTN | -0.0277 |
| HMDINLGIGPLVKKYRTIKGYSIRELARNINVTASMLSQIERDIVNPSINTLKAISVELGVPMYKFFM | -2.38 |
| HMDINLSENLVRLRHAKKLTQEQLADFLGVTKASVSKWETRQSLPDILLLPRLAAFYGVTVDELIGYEP | -1.81 |
| HMDISKTLGKNPLLIIDNIEYRGKTLDEITAMTGVKRFENIDIYGSEEAMKTYGEKAKDGVIIAYTT | 0.0575 |
| HMDITGIGIKKRIKAIIDSEDKKNPLSDTQIVEILKNEGLEISRRTVAKYRSDLQIPSSSKRKK | 0.143 |
| HMDIVEIYVGEEDGERIDSYLAQELNNVSRSYVQGLIKNQLITVNGNHVKPKHIVKEGEHIIVNIPPPKV | -0.0948 |
| HMDIVENSMPNVVGLELNRAKELMTQLGFTNVRYEPTESSRPENEVVYQSVDKDETLDVSSEIIIQYSSGV | 0.0628 |
| HMDKEKLQEKLLQIFEAEPQKKFQVQDLVKVLDMEGAGQFKFVVQALADLEHNKQIKLSEDDTFSLIVKE | -0.173 |
| HMDKENVLQLQKDLLRLSVNALEKRYYQFSDILLLKYILPLVPKEISIDDQSRLRSLLSGIN | -0.538 |
| HMDKEPTHLHTFRLIKEGKSSEEIAEIRNITLGTVNTHLAKLIAVGELTIEQVISKHRLDYVMEAIKNSK | 0.176 |
| HMDKKIVGVNAGKVWQALNEVTEISIVELAEKLNLSVESTALAAGWLAREDQISIERKNGTIELQRKN | -0.91 |
| HMDKNNLLIIYRTNSEGTPYAFSVTPSAKSLDALHKDAKEMLPFLEKSMNNFFSIQIWERAEYLKY | -0.785 |
| HMDKPGMRLNQFIAHSGISSRREADNLIKAGLVQVNGKIIVEMGFRVMPTDIVKFNNETIAS | -2.08 |
| HMDKPIVFLEDTKAHKSSDLQSPVYMTVPKGTIAFVIAEKGDWSQVYAGRVLDRNLASQWVRRGFS | 0.267 |
| HMDKSLDFASIKSVEIATGRKFGWHALKKWSKSNSSEIKTIPDPNFGEVKTYHKDAWLAVYNINLSPILD | -0.376 |
| HMDKSPMIGTAEYEGVLYWRQTKDNGATWEWITDKNGDKMPVSGPAPAVGIDKDGYWTVNGESTGVLAKD | 0.225 |
| HMDKVSYALGLGIGRQLTDMGAKDLNIDDFAQAIKDVLAGGEVKLSDAEAQTIVRNFFDEQEKKQRA | -0.029 |

| Sequence | soluble fraction (log2) |
| --- | --- |
| HMDLANLQNGQTLPLQRDVEVISIPFGKTISLSEDSVVSIMQAKGSSVSVAYEGRLYLIEGSNLDALGLEP | -1.1 |
| HMDLANRSLDRGITILESLARNGASSLADLHRDSGIAKSTIRRLLGTLIQHRLVRRSVADGLYRVTIPLPA | -1.42 |
| HMDLDIQNYNLDEILELFKVSYDFDETELKKAHKMYLMTHPDKSNLNPNIFLFFVQAYDILRKLYEFR | -0.691 |
| HMDLDIRDDIYRANIPNDYKLQQMQNNIDYDKVLTGYYNNRPEANVIANRTLQLANDVYNRD | 0.00307 |
| HMDLDLNIDNYNFDDLLNLFGLKMKFSEDDLKKAKRSVLMTHPDKSGLDKQYFMFFTKAYKMLSQIYYFR | 0.572 |
| HMDLDPNKPAIPIAYPRVLLNIMAEKGFSRTEVLAGSGLADSVFDKPDHRITPAQFLFILMNSFYLS | -0.67 |
| HMDLFLVYQFIRRLATPFTEWKAHELGIIDDKGVQLKKRRDFTTREEKDAYGIFDIMITKLKRLIEKV | 0.0817 |
| HMDLFSAVVHHIVGQQISTKAQATIWKRMRDEFGVVDAAAVLGAGVEKLQSFGMTFRKAEYITDFARKIE | -2.61 |
| HMDLGLTDDQRLVYGLLSPTVPRSSGELLGMVDFGRSKLSRILKELIELGQVFTVGVGRGLKYKRG | -0.482 |
| HMDLGTHMRLIVPTGMRVDHIVYESNGKNISVDHDRSISVRWNGEVVSIDVSPLPSRPDFDVLIYMSPK | -0.134 |
| HMDLLAESLTRREAEVAALAARGLTNRAIAELFGLSVRTAETHLHRAMGKLGANRREDLLLHADRLDPG | -1.41 |
| HMDLLESLSAREREVVHLASRGLVNKLIARELGITERTVKAHLSSAFEKLHIKDRVHLALLVNGI | -2.46 |
| HMDLLKANNLSQINVDKLTDEEILKYSQQLKQSGLTESQAEQIAIARGMPATEIAKLKQRLISLTNMQ | 0.118 |
| HMDLLVWRVADEDAGERIDKLVVDSLDDVSRTAVQQWIKDGLVTVNGKTVKPNYKAAAGDEVAVSVPEPE | 0.239 |
| HMDLMKKTLTKEMLLIDFMKQQFPDSSTNKLRKMLSSGRVKINNLITHKAKSQLKLGDIFELANKPHD | -1.31 |
| HMDLPGIVTETDRQRADLAARIGAAKVEAVLAGGARSVEADEDFDADTRRELHQFLTRMARRAFLEER | 0.1 |
| HMDLPSSETLKVKLNLAKAYVTIEDFGAARRALDEVLSVSSLVDPDLTIQAKSLLAEIDQRS | -0.352 |
| HMDLQAAWLQTVRHLLAHTEDVGDRFAEEARRIHYGEEPHRGIRGQATPEERLALREEGIETMSIPV | -0.919 |
| HMDLQHQLTPRLKRLRLSGILETLEVRNQQAIAEKWSYVEFLTRLAEDEVERRDHKQLTLRLR | -0.529 |
| HMDLSYPFTTVTTDNVNMRRSASSSSVVLERIDKGDSITVLGTSGNYYKVSYNDRTGYVLKQYVDVSAATT | -0.254 |
| HMDLTPEEQMDLYRLLDSLPTEERTYLILHYFEERSFPEMAEILSMPEAKLKSRFYRILHRLRAHL | -2.74 |
| HMDLTSDANLKEAKDQILNLLNDGKRHHVTEINKILLPPVQVQEALRFLIHEETVRVDASFLF | -0.104 |
